Tests used:
Assay type in all cases: cell-based, human
AML blasts = assay: SCNP signaling and apoptosis nodes in AML BMMC (Example 4, Study No. 2)
[1] = test system: AML bone marrow mononuclear cells (BMMC); assay: SCNP of paired diagnosis and relapse AML BMMC and independent diagnostic set (Example 5); conditions: for modulator responsive cells in the diagnostic AML bone marrow samples: diagnosis samples of Patients 1 and 2, 15 minutes modulation; for cells in which both p-Akt and p-S6 were induced: SCF 20 ng/ml, 15 minutes
Description: All AML bone marrow mononuclear cells (BMMC) were derived from the bone marrow (BM) of AML patients treated at MD Anderson Cancer Center (MDACC) between September 1999 and September 2006. Clinical data were de-identified in compliance with Health Insurance Portability and Accountability Act regulations. Patient/sample inclusion criteria required a diagnosis of French-American-British (FAB) classification of M0 through M7 AML (excluding M3) AML, collection prior to therapy initiation and at least 50% viability upon sample thaw. For the identification of chemoresistant signaling profiles, two longitudinally paired BMMC samples at diagnosis (collection prior to the initiation of induction chemotherapy) and first relapse, were examined. An independent test set comprised of 47 BMMC samples collected at diagnosis from AML patients with a disease response of CR after high dose cytarabine based chemotherapy was used to assess the ability of the identified signaling profiles to predict disease relapse. Healthy, unstimulated BMMC (n=2) were purchased from a commercial source (All Cells) to serve as a control. All samples underwent fractionation over Ficoll-Hypaque prior to cryopreservation with 90% fetal bovine serum and 10% dimethyl sulfoxide and storage in liquid nitrogen.
The SCNP assay measured response to growth factors and cytokines involved in hematopoietic progenitor or myeloid biology (SCF, FLT3L, G-CSF, IL-27), drug transporter (ABCG2, MRP-1) and chemokine receptors (CXCR4) associated with adverse disease prognosis in AML, and the c-Kit growth factor receptor for SCF. The SCF and FLT3L—mediated PI3K/Akt and MAPK pathway is important for maintaining the hematopoietic stem cell pool; G-CSF-mediated Jak/STAT pathway activation is important for neutrophilic differentiation of hematopoietic progenitor cells; interleukin (IL)-27 mediated Jak/STAT pathway activation is important in regulating proliferation and differentiation of hematopoietic stem cells; CXCR4 expression is associated with disease relapse and decreased survival; and drug transporter expression levels (i.e. ABCG2 and MRP-1) are known to be associated with adverse prognosis in AML. All together, approximately 20 signaling nodes were evaluated in each sample.
SCNP assays were performed as described previously. Cryopreserved samples were thawed at 37° C. and washed once in warm PBS containing 10% FBS (HyClone, Waltham, Mass., USA) and 2 mM EDTA. […] The cells were re-suspended in RPMI containing 1% FBS, aliquoted to 100,000 cells/condition and rested for 1-2 hours at 37° C. Cells were incubated for 15 minutes at 37° C. with each of the following signaling modulators: fins-like tyrosine kinase receptor-3 ligand (FLT3L, 50 ng/ml; eBiosciences, San Diego, Calif., USA); granulocyte colony-stimulating factor (G-CSF, 50 ng/ml; R&D Systems, Minneapolis, Minn., USA); interleukin-27 (IL-27, 50 ng/ml, R&D Systems); stem cell factor (SCF, 20 ng/ml, R&D Systems). After exposure to modulators, cells were fixed with a final concentration of 1.6% paraformaldehyde (Electron Microscopy Sciences, Hatfield, Pa., USA) for 10 minutes at 37° C. Cells were pelleted and then permeabilized with 100% ice-cold methanol (Sigma-Aldrich, St. Louis, Mo., USA) and stored at −80° C. overnight. Subsequently, cells were washed with FACS buffer containing phosphate buffered saline (PBS, Fisher Scientific, Waltham, Mass., USA), 0.5% bovine serum albumin (BSA, Ankeny, Iowa, USA), 0.05% NaN3 (Mallinckrodt, Hazelwood, Mo., USA), pelleted and stained with cocktails of fluorochrome-conjugated antibodies. As an exploratory effort, when sufficient number of cells were available, simultaneous measurement of c-Kit expression and SCF induced signaling was also performed. Antibodies were available from commercial vendors such as BD, Bechman Coulter, Invitrogen and R&D Systems.
Flow cytometry data was acquired on an LSR II and/or CANTO II flow cytometer using the FACS DIVA software (BD Biosciences, San Jose, Calif.). […]

AML PBMC = assay: Kinase inhibitor Signaling Arm, SCNP (Example 13); conditions: range over AML PBMC samples (N=6); short modulation, 15 minutes
[2] = Study No.2, patients age 60 and older
[3] = Study No.2, patients with De Novo AML
[4] = Study No.2, patients with Secondary AML
[5] = Fold metric, all patients, Study No. 2
[6] = Study No.2, patients less than 60 years old
[7] = TotalPhospho metric, all patients, Study No. 2

Molecule: SCF: stem cell factor, ligand of c-Kit
- Mean Value of CRs, p-S6 Fold (AML blasts; [2]): 0.14
- Mean Value of NRs, p-S6 Fold (AML blasts; [2]): 0.70
- Mean Value of CRs, p-Akt Fold (AML blasts; [3]): 0.52
- Mean Value of CRs, p-PLCy2 TotalPhospho (AML blasts; [3]): 1.29
- Mean Value of CRs, p-S6 Fold (AML blasts; [3]): 1.05
- Mean Value of NRs, p-Akt Fold (AML blasts; [3]): −0.20
- Mean Value of NRs, p-PLCy2 TotalPhospho (AML blasts; [3]): 1.96
- Mean Value of NRs, p-S6 Fold (AML blasts; [3]): 0.43
- Mean Value of CRs, p-S6 Fold (AML blasts; [4]): 0.21
- Mean Value of NRs, p-S6 Fold (AML blasts; [4]): 1.28
- modulator responsive cells in the diagnostic AML bone marrow samples [1]: ~1%
- cells in which both p-Akt and p-S6 were induced ([1]; relapse sample from Patient 1): 3.2%
- cells in which both p-Akt and p-S6 were induced ([1]; relapse sample from Patient 2): 31.7%
- percentage of growth factor responsive cells (AML PBMC): 6%-49%

B1: IL-27: interleukin-27, cytokine modulator (protein, UniProt Q8NEV9 29-243; Q14213 21-229, looked up)
Interleukin-27 subunit alpha: FPRPPGRPQLSLQELRREFTVSLHLARKLLSEVRGQAHRFAESHLPGVNLYLLPLGEQLPDVSLTFQAWRRLSDPERLCFISTTLQPFHALLGGLGTQGRWTNMERMQLWAMRLDLRDLQRHLRFQVLAAGFNLPEEEEEEEEEEEEERKGLLPGALGSALQGPAQVSWPQLLSTYRLLHSLELVLSRAVRELLLLSKAGHSVWPLGFPTLSPQP
Interleukin-27 subunit beta: RKGPPAALTLPRVQCRASRYPIAVDCSWTLPPAPNSTSPVSFIATYRLGMAARGHSWPCLQQTPTSTSCTITDVQLFSMAPYVLNVTAVHPWGSSSSFVPFITEHIIKPDPPEGVRLSPLAERQLQVQWEPPGSWPFPEIFSLKYWIRYKRQGAARFHRVGPIEATSFILRAVRPRARYYVQVAAQDLTDYGELSDWSLPATATMSLGK
- Mean Value of CRs, p-Stat3 (AML blasts; [5]): 0.22
- Mean Value of NRs, p-Stat3 (AML blasts; [5]): 0.58
- Mean Value of CRs, p-Stat3 Fold (AML blasts; [2]): −0.19
- Mean Value of NRs, p-Stat3 Fold (AML blasts; [2]): 0.48
- Mean Value of CRs, p-Stat1 TotalPhospho (AML blasts; [6]): 1.73
- Mean Value of CRs, p-Stat3 Fold (AML blasts; [6]): 0.29
- Mean Value of CRs, p-Stat3 TotalPhospho (AML blasts; [6]): 1.97
- Mean Value of NRs, p-Stat1 TotalPhospho (AML blasts; [6]): 3.12
- Mean Value of NRs, p-Stat3 Fold (AML blasts; [6]): 0.72
- Mean Value of NRs, p-Stat3 TotalPhospho (AML blasts; [6]): 3.06
- Mean Value of CRs, p-Stat1 Fold (AML blasts; [4]): 0.32
- Mean Value of CRs, p-Stat1 TotalPhospho (AML blasts; [4]): 1.50
- Mean Value of CRs, p-Stat3 Fold (AML blasts; [4]): −0.01
- Mean Value of CRs, p-Stat3 TotalPhospho (AML blasts; [4]): 1.61
- Mean Value of NRs, p-Stat1 Fold (AML blasts; [4]): 1.90
- Mean Value of NRs, p-Stat1 TotalPhospho (AML blasts; [4]): 3.19
- Mean Value of NRs, p-Stat3 Fold (AML blasts; [4]): 0.76
- Mean Value of NRs, p-Stat3 TotalPhospho (AML blasts; [4]): 2.60
- Mean Value of CRs, p-Stat1 (AML blasts; [7]): 1.66
- Mean Value of CRs, p-Stat3 (AML blasts; [7]): 1.88
- Mean Value of NRs, p-Stat1 (AML blasts; [7]): 2.63
- Mean Value of NRs, p-Stat3 (AML blasts; [7]): 2.43
- modulator responsive cells in the diagnostic AML bone marrow samples [1]: no IL-27 responsive subpopulation was identified

B2: FLT3L: fms-like tyrosine kinase receptor-3 ligand (protein, UniProt P49771 27-235, looked up)
Fms-related tyrosine kinase 3 …: TQDCSFQHSPISSDFAVKIRELSDYLLQDYPVTVASNLQDEELCGGLWRLVLAQRWMERLKTVAGSKMQGLLERVNTEIHFVTKCAFQPPPSCLRFVQTNISRLLQETSEQLVALKPWITRQNFSRCLELQCQPDSSTLPPPWSPRPLEATAPTAPQPPLLLLLLLPVGLLLLAAAWCLHWQRTRRRTPRPGEQVPPVPSPQDLLLVEH
- Mean Value of CRs, p-Akt Fold (AML blasts; [2]): 0.00
- Mean Value of CRs, p-Erk Fold (AML blasts; [2]): 0.01
- Mean Value of CRs, p-S6 Fold (AML blasts; [2]): −0.06
- Mean Value of NRs, p-Akt Fold (AML blasts; [2]): 0.36
- Mean Value of NRs, p-Erk Fold (AML blasts; [2]): 0.21
- Mean Value of NRs, p-S6 Fold (AML blasts; [2]): 0.67
- Mean Value of CRs, p-PLCy2 TotalPhospho (AML blasts; [3]): 1.26
- Mean Value of NRs, p-PLCy2 TotalPhospho (AML blasts; [3]): 1.95
- Mean Value of CRs, P-Erk Fold (AML blasts; [4]): 0.00
- Mean Value of CRs, p-Akt Fold (AML blasts; [4]): 0.19
- Mean Value of CRs, p-S6 Fold (AML blasts; [4]): 0.12
- Mean Value of NRs, P-Erk Fold (AML blasts; [4]): 0.32
- Mean Value of NRs, p-Akt Fold (AML blasts; [4]): 0.60
- Mean Value of NRs, p-S6 Fold (AML blasts; [4]): 1.02
- modulator responsive cells in the diagnostic AML bone marrow samples [1]: ~1%
- percentage of growth factor responsive cells (AML PBMC): 3%-22%

B3: G-CSF: granulocyte colony-stimulating factor (protein, UniProt P09919 31-207, looked up)
Granulocyte …: TPLGPASSLPQSFLLKCLEQVRKIQGDGAALQEKLVSECATYKLCHPEELVLLGHSLGIPWAPLSSCPSQALQLAGCLSQLHSGLFLYQGLLQALEGISPELGPTLDTLQLDVADFATTIWQQMEELGMAPALQPTQGAMPAFASAFQRRAGGVLVASHLQSFLEVSYRVLRHLAQP
- Mean Value of CRs, p-Stat1 Fold (AML blasts; [4]): 0.00
- Mean Value of CRs, p-Stat3 Fold (AML blasts; [4]): 0.06
- Mean Value of CRs, p-Stat5 Fold (AML blasts; [4]): 0.08
- Mean Value of CRs, p-Stat5 TotalPhospho (AML blasts; [4]): 2.58
- Mean Value of NRs, p-Stat1 Fold (AML blasts; [4]): 0.36
- Mean Value of NRs, p-Stat3 Fold (AML blasts; [4]): 0.96
- Mean Value of NRs, p-Stat5 Fold (AML blasts; [4]): 1.07
- Mean Value of NRs, p-Stat5 TotalPhospho (AML blasts; [4]): 3.91
- modulator responsive cells in the diagnostic AML bone marrow samples [1]: ~1%
- percentage of growth factor responsive cells (AML PBMC): 3%-56%

— US20160223554A1, “METHODS FOR DIAGNOSIS, PROGNOSIS AND METHODS OF TREATMENT” (priority 2011, published 2016)
